Measurements from publication PMC10362037.

Biological target: SARS-CoV-2 (2019-nCov) Spike S1 (Abclonal, RP01262) (SARS-CoV-2) (UniProt P0DTC2)
Test: SPR

Row | Substance | Kd [µM]
1 | Human integrin αvβ3 (R&D Systems, 3817-AV-050) (from UniProt P06756 31-1048; P05106 27-718) (complex) | 0.0404
2 | suPAR (purified protein of the SPR assay) (from UniProt Q03405 23-305) (natural protein) | > 2000
